Results reported in patent US9181296B2, “Stabilized liquid enzyme compositions” (NOVOZYMES A/S, priority 2008, dated 2015).

Target: T1, Protease (Savinase 16.0 LEX) (Lederbergia lenta, UniProt P29600)
T1 construct: purchased Novozymes Savinase 16.0 LEX
T1 sequence (P29600 1-269): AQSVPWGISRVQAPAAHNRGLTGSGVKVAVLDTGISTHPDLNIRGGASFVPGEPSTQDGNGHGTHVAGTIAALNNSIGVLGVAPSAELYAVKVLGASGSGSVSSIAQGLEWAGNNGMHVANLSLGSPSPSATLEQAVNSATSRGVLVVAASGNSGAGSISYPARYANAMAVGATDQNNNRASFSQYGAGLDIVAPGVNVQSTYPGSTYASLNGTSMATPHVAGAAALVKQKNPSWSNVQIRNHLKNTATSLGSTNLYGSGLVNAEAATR
Experiment: Storage stability of protease in liquid detergent N with stabilizer (Example 3)
Type: biochemical
Conditions: 1 week 40° C.
Description: Peptide aldehydes Z-GAF-H, Z-GAL-H and Z-GAY-H were produced by peptide synthesis, all with a purity >80%. The peptide aldehydes were dissolved in DMSO to a concentration of 10 mg/ml before use.
The following detergent N with enzymes was prepared:
The following detergents with stabilizer according to the invention were prepared and normalized to 100 g of detergent:
The detergents were placed in closed glasses at 40° C. Residual activity of protease was measured (by comparison to a reference stored at −18° C.) after 1 week, using standard enzyme analytical methods (protease measured by hydrolysis of N,N-dimethylcasein at 40° C., pH 8.3).

Z-GAY-H
Molar surplus of inhibitor relative to protease needed to reach the same residual activities as the other peptide aldehydes (compared with Z-GAL-H and Z-GAF-H in detergent N): approximately half
Efficiency for stabilizing the protease (in words) (detergent N): most efficient
